From patent CN111138536A (REYOUNG (SUZHOU) BIOPHARMACEUTICAL CO LTD, dated 2020) come the findings set out here.

For the assay, the target named is T1, 人血清白蛋白 (human, UniProt P02768 25-609).
T1 construct: also called HSA; human serum albumin
Description: SPR (Biacore T200); HSA amine-coupled to CM5 chip, NB4 as analyte. On the technique in general: Surface plasmon resonance follows binding to a sensor surface in real time, without labels.

B1: 单域抗体NB4 (VHH)
VHH: QVQLQESGGGSVQAGGSLRLACAASGYTYSSACMAWFRQAPGKEREKVATIYTGGTYPYYADSVKGRFTMSHDNAKNTVYLQMNSLKPEDTGMYYCAADASWGCRLSGSWGAKYNNWGQGTQVTVSS
notes: Camel-derived VHH, expressed in E. coli BL-21 from pET-22 with a C-terminal 6x His tag and purified on a nickel column; also called 抗人血清白蛋白单域抗体
Broadly, the Kd is the free concentration of one partner at which half of the binding sites on the other are occupied at equilibrium, for simple one-to-one binding. B1 showed a Kd of 0.245 nM. That is a sub-nanomolar value.
